From publication PMC11965310

Key:
[1] = target: VHH H3-2; assay: SEC; Superdex 75 Increase 10/300 GL, PBS, 16 °C; 20 µM VHH without or with 40 µM tau-Cter peptide
[2] = target: VHH H3-2; assay: crystal structure; 280 μM H3-2 with 1 mM tau-Cter peptide; 23% PEG-MME 2000, 0.1 M potassium acetate; 1.8 Å

stoichiometry N [1]: 2 | stoichiometry N [2]: 2
B1: VHH H3-2 (VHH)
VHH: EVQLQASGGGFVQPGGSLRLSCAASGYTSGDEIMGWFRQAPGKEREFVSAISWQSGTSTYYADSVKGRFTISRDNSKNTVYLQMNSLRAEDTATYYCAPMTLAETYYEWLISGYWGQGTQVTVSS
